Literature values in paper PMC293425.

Target: relaxin receptor LGR7 (Homo sapiens) (UniProt Q9HBX9)
Chain of UniProt Q9HBX9 (Q9HBX9 whole entry): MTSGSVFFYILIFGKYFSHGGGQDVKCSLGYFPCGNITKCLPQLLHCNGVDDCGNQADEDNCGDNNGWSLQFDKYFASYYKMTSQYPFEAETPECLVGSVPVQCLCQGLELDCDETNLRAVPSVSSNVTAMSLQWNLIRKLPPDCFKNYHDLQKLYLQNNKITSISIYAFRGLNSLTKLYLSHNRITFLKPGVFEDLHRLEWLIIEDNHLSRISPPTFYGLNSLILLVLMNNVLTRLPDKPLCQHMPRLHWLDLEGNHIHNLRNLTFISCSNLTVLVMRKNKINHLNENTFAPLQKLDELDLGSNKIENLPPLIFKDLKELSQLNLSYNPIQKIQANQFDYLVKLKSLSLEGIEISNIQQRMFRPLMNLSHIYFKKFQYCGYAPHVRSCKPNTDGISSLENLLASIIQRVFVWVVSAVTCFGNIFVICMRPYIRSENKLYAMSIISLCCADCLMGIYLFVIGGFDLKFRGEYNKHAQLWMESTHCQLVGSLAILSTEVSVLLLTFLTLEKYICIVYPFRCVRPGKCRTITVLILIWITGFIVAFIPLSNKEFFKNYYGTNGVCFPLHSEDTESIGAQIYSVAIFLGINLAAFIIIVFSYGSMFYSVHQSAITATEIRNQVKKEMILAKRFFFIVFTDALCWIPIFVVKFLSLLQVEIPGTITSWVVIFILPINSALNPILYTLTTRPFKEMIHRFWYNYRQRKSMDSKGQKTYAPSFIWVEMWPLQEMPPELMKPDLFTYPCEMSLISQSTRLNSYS

Chain of relaxin (P04090 162-185): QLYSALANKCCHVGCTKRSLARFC

## relaxin (from UniProt P04090)
  Kd: 1 nM
